Results on 1 substance are retold here after patent publication US20190225979A1.

The assay has as its target fetuin.

As for “recombinant protein of H5 hemagglutinin ectodomain (H5HA)”, the absorbance at 450 nm worked out at 0.15 O.D. 450.
